Measurements reported in patent US20250320281A1.

Key:
Assay in all cases: cell-based or functional assay
[1] = target: HIV-1 Env of pseudovirus JRFL (HIV-1)
[2] = target: HIV-1 Env of pseudovirus MGRM-Chronic-B-020 (HIV-1)
[3] = target: HIV-1 Env of pseudovirus MGRM-G-025 (HIV-1, clade G isolate MGRM-G-025)
[4] = target: HIV-1 Env of pseudovirus MGRM-F1-008 (HIV-1)
[5] = target: HIV-1 Env of pseudovirus MGRM-Chronic-B-011 (HIV-1)
[6] = target: HIV-1 Env of pseudovirus MGRM-AG-001 (clade CRF_AG) (HIV-1)
[7] = target: HIV-1 envelope glycoprotein (Env) of isolate MGRM-A-008, clade A (HIV-1)
[8] = target: HIV-1 Env of isolate MGRM-D-024 (clade D pseudovirus) (HIV-1)
[9] = target: HIV-1 Env of pseudovirus MGRM-AE-006 (clade CRF01_AE) (HIV-1)
[10] = target: HIV-1 Env of pseudovirus MGRM-AG-005 (clade CRF_AG) (HIV-1)
[11] = target: HIV-1 envelope glycoprotein (Env) of isolate MGRM-A-001, clade A (HIV-1)
[12] = target: HIV-1 92UG024 envelope glycoprotein (Env) on pseudovirus (HIV-1)
[13] = target: HIV-1 envelope glycoprotein (Env) of isolate MGRM-A-014, clade A (HIV-1)
[14] = target: HIV-1 Env of isolate MGRM-Chronic-B-004, clade B, on pseudovirus (HIV-1)
[15] = target: HIV-1 Env of pseudovirus MGRM-F1-004 (HIV-1)
[16] = target: HIV-1 Env of isolate MGRM-D-013 (clade D pseudovirus) (HIV-1)
[17] = target: HIV-1 Env of isolate CAAN.A2 (Acute), clade B, on pseudovirus (HIV-1)
[18] = target: HIV-1 Env of pseudovirus MGRM-G-028 (HIV-1, clade G isolate MGRM-G-028)
[19] = target: HIV-1 Env of pseudovirus MGRM-AE-005 (clade CRF01_AE) (HIV-1)
[20] = target: HIV-1 Env of isolate 92UG005 (clade D pseudovirus) (HIV-1)
[21] = target: HIV-1 Env of isolate MGRM-A-006 (HIV-1)
[22] = target: HIV-1 MGRM-D-001 Env (pseudovirus) (HIV-1)
[23] = target: HIV-1 Env of isolate MG RM-D-020 (HIV-1)
[24] = target: HIV-1 Env of isolate MG RM-D-008 (HIV-1)
[25] = target: HIV-1 Env of isolate 92WR024 (HIV-1)
[26] = target: HIV-1 envelope glycoprotein (Env) of isolate MGRM-C-008 (HIV-1)
[27] = target: HIV-1 Env of isolate MG RM-D-002 (HIV-1)
[28] = target: HIV-1 APV17 Env (pseudovirus, clade B) (HIV-1)
[29] = target: HIV-1 Env of isolate MGRM-AG-009 (subtype AG) (HIV-1)
[30] = target: HIV-1 93IN905 Env (pseudovirus, clade C) (HIV-1)
[31] = target: aMLV envelope (negative control pseudovirus)
[32] = target: HIV-1 envelope glycoprotein (Env) of isolate MGRM-C-014 (HIV-1)
[33] = target: HIV-1 Env of isolate MGRM-A-001 (HIV-1)
[34] = target: HIV-1 Env of isolate MG RM-D-016 (HIV-1)
[35] = target: HIV-1 Env of pseudovirus isolate MGRM-G-028 (HIV-1)
[36] = target: HIV-1 94UG103 Env (pseudovirus, clade A) (HIV-1)
[37] = target: HIV-1 Env of isolate MGRM-AG-003 (subtype AG) (HIV-1)
[38] = target: HIV-1 Env of isolate MGRM-A-011 (subtype A) (HIV-1)
[39] = target: HIV-1 Env of isolate MGRM-Chronic-B-001 (subtype B) (HIV-1)
[40] = target: HIV-1 Env of isolate MGRM-D-018 (clade D), on pseudovirus (HIV-1)

5329_C19 (PGT-136) (antibody), sequence (VH): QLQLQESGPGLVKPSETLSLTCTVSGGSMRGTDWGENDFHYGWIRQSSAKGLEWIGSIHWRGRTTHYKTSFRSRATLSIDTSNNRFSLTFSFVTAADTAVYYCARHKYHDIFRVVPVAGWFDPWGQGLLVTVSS
5329_C19 (PGT-136) (antibody), sequence (VL): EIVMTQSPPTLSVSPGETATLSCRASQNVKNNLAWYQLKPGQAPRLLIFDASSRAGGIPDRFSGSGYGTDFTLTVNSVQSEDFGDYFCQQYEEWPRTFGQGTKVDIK
1443_C16 (PG16) (TCN-116) (antibody), sequence (VH): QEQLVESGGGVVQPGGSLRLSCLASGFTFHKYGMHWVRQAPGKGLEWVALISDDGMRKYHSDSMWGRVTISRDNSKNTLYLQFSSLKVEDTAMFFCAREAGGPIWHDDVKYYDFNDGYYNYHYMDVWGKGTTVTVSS
1443_C16 (PG16) (TCN-116) (antibody), sequence (VL): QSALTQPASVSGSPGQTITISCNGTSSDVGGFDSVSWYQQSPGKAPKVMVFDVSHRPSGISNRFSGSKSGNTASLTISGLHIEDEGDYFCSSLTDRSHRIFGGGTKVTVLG

Substance	IC50 (µg/ml), pseudovirus neutralization [1]	IC50 (µg/ml), pseudovirus neutralization [2]	IC50 (µg/ml), pseudovirus neutralization [3]	IC50 (µg/ml), pseudovirus neutralization [4]	IC50 (µg/ml), pseudovirus neutralization [5]	IC50 [6]	IC50 (µg/ml), pseudovirus neutralization [7]	IC50 (µg/ml), pseudovirus neutralization [8]	IC50 [9]	IC50 [10]	IC50 (µg/ml), pseudovirus neutralization [11]	IC50, pseudovirus neutralization [12]	IC50 (µg/ml), pseudovirus neutralization [13]	IC50 (µg/ml), pseudovirus neutralization [14]	IC50 (µg/ml), pseudovirus neutralization [15]	IC50 (µg/ml), pseudovirus neutralization [16]	IC50 (µg/ml), pseudovirus neutralization [17]	IC50 (µg/ml), pseudovirus neutralization [18]	IC50 [19]	IC50 (µg/ml), pseudovirus neutralization [20]	also measured
2G12 (antibody)	1.45 µg/mL	0.2 µg/mL	31.9 µg/mL	> 50 µg/mL	> 50 µg/mL	0.69 µg/mL	> 50 µg/mL	> 50 µg/mL	> 50 µg/mL	> 50 µg/mL	> 50 µg/mL	0.59 µg/mL	> 50 µg/mL	8.65 µg/mL	> 50 µg/mL	> 50 µg/mL	> 50 µg/mL	28.2 µg/mL	> 50 µg/mL	> 50 µg/mL	–
1443_C16 (PG16) (TCN-116) (antibody)	> 50 µg/mL	> 50 µg/mL	> 50 µg/mL	> 50 µg/mL	> 50 µg/mL	0.03 µg/mL	> 50 µg/mL	0.02 µg/mL	0.03 µg/mL	> 50 µg/mL	> 50 µg/mL	> 50 µg/mL	20.3 µg/mL	0.01 µg/mL	0.43 µg/mL	0.11 µg/mL	8.83 µg/mL	3.09 µg/mL	0.02 µg/mL	> 50 µg/mL	–
2F5 (antibody)	3.54 µg/mL	0.78 µg/mL	> 50 µg/mL	1.61 µg/mL	0.81 µg/mL	0.75 µg/mL	> 50 µg/mL	> 50 µg/mL	0.18 µg/mL	> 50 µg/mL	> 50 µg/mL	1.27 µg/mL	1.43 µg/mL	2.41 µg/mL	4.31 µg/mL	2.12 µg/mL	23.1 µg/mL	2.24 µg/mL	0.14 µg/mL	8.61 µg/mL	–
4E10 (antibody)	18.9 µg/mL	2.45 µg/mL	1.7 µg/mL	2.75 µg/mL	1.07 µg/mL	1.12 µg/mL	7.59 µg/mL	3.6 µg/mL	0.23 µg/mL	2.13 µg/mL	15.1 µg/mL	1.32 µg/mL	1.74 µg/mL	3.7 µg/mL	2.74 µg/mL	5.38 µg/mL	17.9 µg/mL	6.32 µg/mL	0.47 µg/mL	7.46 µg/mL	–
5343_B08 (PGT-135) (antibody)	–	–	–	–	–	–	–	–	–	–	–	–	–	–	–	–	–	–	–	–	IC50 [21]: > 50 µg/mL; IC50 (neutralizing activity, pseudovirus) [22]: > 10 µg/mL; IC50 (µg/mL), pseudovirus neutralization [23]: > 50 µg/mL; IC50 (µg/mL), pseudovirus neutralization [24]: > 50 µg/mL; IC50 [25]: > 50 µg/mL; IC50 (µg/mL), pseudovirus neutralization [26]: > 50 µg/mL; IC50 (µg/mL), pseudovirus neutralization [27]: > 50 µg/mL; IC50 neutralization [28]: > 10 µg/mL; IC50 (µg/mL), pseudovirus neutralization [29]: > 50 µg/mL; IC50 neutralization [30]: 0.0183 µg/mL; IC50 (neutralizing activity, pseudovirus) [31]: > 10 µg/mL; IC50 (µg/mL), pseudovirus neutralization [32]: > 50 µg/mL; IC50 [33]: > 50 µg/mL; IC50 (µg/mL), pseudovirus neutralization [34]: > 50 µg/mL; IC50 (µg/mL), pseudovirus neutralization [35]: > 50 µg/mL; IC50 neutralization [36]: > 10 µg/mL; IC50 (µg/mL), pseudovirus neutralization [37]: > 50 µg/mL; IC50 (µg/mL), pseudovirus neutralization [38]: > 50 µg/mL; IC50 neutralization [39]: > 50 µg/mL; IC50, pseudovirus neutralization [40]: 0.0433 µg/mL
b12 (antibody)	0.02 µg/mL	6.16 µg/mL	> 50 µg/mL	> 50 µg/mL	2.11 µg/mL	11.9 µg/mL	> 50 µg/mL	5.92 µg/mL	> 50 µg/mL	> 50 µg/mL	> 50 µg/mL	49.1 µg/mL	> 50 µg/mL	0.26 µg/mL	> 50 µg/mL	> 50 µg/mL	> 50 µg/mL	> 50 µg/mL	0.63 µg/mL	> 50 µg/mL	–
1495_C14 (PGC14) (antibody)	> 50 µg/mL	> 50 µg/mL	> 50 µg/mL	> 50 µg/mL	> 50 µg/mL	> 50 µg/mL	> 50 µg/mL	> 50 µg/mL	> 50 µg/mL	> 50 µg/mL	> 50 µg/mL	> 50 µg/mL	> 50 µg/mL	> 50 µg/mL	> 50 µg/mL	> 50 µg/mL	> 50 µg/mL	> 50 µg/mL	> 50 µg/mL	> 50 µg/mL	–
5329_C19 (PGT-136) (antibody)	–	–	–	–	–	–	–	–	–	–	–	–	–	–	–	–	–	–	–	–	IC50 [21]: > 50 µg/mL; IC50 (neutralizing activity, pseudovirus) [22]: > 10 µg/mL; IC50 (µg/mL), pseudovirus neutralization [23]: > 50 µg/mL; IC50 (µg/mL), pseudovirus neutralization [24]: > 50 µg/mL; IC50 [25]: > 50 µg/mL; IC50 (µg/mL), pseudovirus neutralization [26]: > 50 µg/mL; IC50 (µg/mL), pseudovirus neutralization [27]: > 50 µg/mL; IC50 neutralization [28]: > 10 µg/mL; IC50 (µg/mL), pseudovirus neutralization [29]: > 50 µg/mL; IC50 neutralization [30]: 0.0135 µg/mL; IC50 (neutralizing activity, pseudovirus) [31]: > 10 µg/mL; IC50 (µg/mL), pseudovirus neutralization [32]: > 50 µg/mL; IC50 [33]: > 50 µg/mL; IC50 (µg/mL), pseudovirus neutralization [34]: > 50 µg/mL; IC50 (µg/mL), pseudovirus neutralization [35]: > 50 µg/mL; IC50 neutralization [36]: > 10 µg/mL; IC50 (µg/mL), pseudovirus neutralization [37]: > 50 µg/mL; IC50 (µg/mL), pseudovirus neutralization [38]: > 50 µg/mL; IC50 neutralization [39]: > 50 µg/mL; IC50, pseudovirus neutralization [40]: > 10 µg/mL
